Measurements published in the Immune Epitope Database (IEDB).
Blank lines part the entries; values can stand above or below the sequence they belong to.

Experiments:
[1] = biological target: HLA-B*40:01; assay: IEDB peptide-MHC binding, purified MHC/direct/fluorescence; filed as Kd, often an IC50 or EC50 that approximates it; ≥ and ≤ were set here for values at or beyond the usual limits of such assays; settings: source organism: Influenza A virus (A/SW/MN/3227/00(H1N2))
[2] = biological target: HLA-B*44:02; assay: as above; settings: source organism: Influenza A virus (A/SW/MN/3227/00(H1N2))
[3] = biological target: HLA-A*68:02; assay: IEDB peptide-MHC binding, purified MHC/competitive/radioactivity; filed as Kd, often an IC50 or EC50 that approximates it; ≥ and ≤ were set here for values at or beyond the usual limits of such assays
[4] = biological target: HLA-B*07:02; assay: as above
[5] = biological target: HLA-B*35:01; assay: as above
[6] = biological target: HLA-B*53:01; assay: as above
[7] = biological target: HLA-B*54:01; assay: as above
[8] = biological target: HLA-B*51:01; assay: as above
[9] = biological target: HLA-B*51:01; assay: IEDB peptide-MHC binding, purified MHC/competitive/fluorescence; filed as Kd, often an IC50 or EC50 that approximates it; ≥ and ≤ were set here for values at or beyond the usual limits of such assays; settings: source organism: Mycobacterium tuberculosis H37Ra
[10] = biological target: HLA-A*11:01; assay: IEDB peptide-MHC binding, purified MHC/competitive/radioactivity; filed as Kd, often an IC50 or EC50 that approximates it; ≥ and ≤ were set here for values at or beyond the usual limits of such assays; settings: source organism: Mammarenavirus machupoense
[11] = biological target: HLA-A*02:06; assay: as above
[12] = biological target: HLA-A*01:01; assay: as above; settings: source organism: Dengue virus 3 Martinique/1243/1999
[13] = biological target: HLA-A*02:03; assay: as above
[14] = biological target: HLA-A*02:01; assay: as above
[15] = biological target: HLA-B*57:01; assay: IEDB peptide-MHC binding, purified MHC/direct/fluorescence; filed as Kd, often an IC50 or EC50 that approximates it; ≥ and ≤ were set here for values at or beyond the usual limits of such assays; settings: source organism: Giardia lamblia ATCC 50803
[16] = biological target: HLA-B*58:01; assay: as above; settings: source organism: Giardia lamblia ATCC 50803
[17] = biological target: HLA-B*15:01; assay: IEDB peptide-MHC binding, purified MHC/competitive/radioactivity; filed as Kd, often an IC50 or EC50 that approximates it; ≥ and ≤ were set here for values at or beyond the usual limits of such assays; settings: source organism: Dengue virus 3 Martinique/1243/1999
[18] = biological target: HLA-A*23:01; assay: as above; settings: source organism: Dengue virus 3 Martinique/1243/1999
[19] = biological target: HLA-B*08:01; assay: as above; settings: source organism: Dengue virus 3 Martinique/1243/1999
[20] = biological target: HLA-A*02:02; assay: as above; settings: source organism: Vaccinia virus WR
[21] = source organism: Mammarenavirus machupoense
[22] = source organism: Triticum aestivum
[23] = source organism: Mammarenavirus juninense
[24] = source organism: Vaccinia virus WR
[25] = source organism: Dengue virus 3 Martinique/1243/1999
[26] = source organism: Dengue virus 2 Jamaica/1409/1983
[27] = source organism: Dengue virus 1 Brazil/97-11/1997
[28] = source organism: SARS coronavirus Tor2

Sequence: LEESHPGIF
Kd [1]: 85.3 nM | Kd [2]: ≥ 20000 nM

Kd ([3]; source organism: Homo sapiens): ≥ 60000 nM
Sequence: LLQEENRQKL

Sequence: LPTSITVPV
Kd [4, 21]: 67.1 nM | Kd [5, 21]: 3.55 nM | Kd [6, 21]: 72.5 nM | Kd [7, 21]: 4.01 nM | Kd [8, 21]: 1970 nM

Sequence: LPVPLFPGF
Kd [9]: 249 nM

Kd [4, 22]: 4330 nM | Kd [5, 22]: 0.487 nM | Kd [6, 22]: 4.49 nM | Kd [7, 22]: 8530 nM | Kd [8, 22]: 9.22 nM
Sequence: LPYPQPQLPY

Sequence: MLNNSFYYM
Kd [10]: 195 nM | Kd [7, 21]: 7520 nM

Sequence: MPGVLSYVV
Kd [4, 23]: 1030 nM | Kd [5, 23]: 22.2 nM | Kd [6, 23]: 187 nM | Kd [7, 23]: 0.507 nM | Kd [8, 23]: 208 nM

Sequence: MPSACANGWI
Kd [4, 24]: ≥ 31400 nM | Kd [5, 24]: ≥ 69900 nM | Kd [6, 24]: 5240 nM | Kd [7, 24]: 5400 nM | Kd [8, 24]: ≥ 43500 nM

Sequence: MTATPPGTA
Kd [3, 25]: 35.2 nM

Sequence: MTDDIGMGV
Kd [11, 26]: 7.05 nM | Kd [3, 26]: 5.13 nM

Sequence: MTTEDMLTV
Kd [11, 25]: 2.85 nM | Kd [12]: 7380 nM | Kd [3, 25]: 19.1 nM

Sequence: MVSAGSGEV
Kd [3, 27]: 29.6 nM | Kd [13, 27]: 94.6 nM

Kd ([14]; source organism: Homo sapiens): 1930 nM | Kd ([3]; source organism: Homo sapiens): ≥ 85700 nM
Sequence: NMDPLNDNI

Sequence: NTTANISLTA
Kd [3, 27]: 44.6 nM

Kd [4, 22]: 4470 nM | Kd [5, 22]: ≥ 63700 nM | Kd [6, 22]: ≥ 63700 nM | Kd [7, 22]: ≥ 27700 nM | Kd [8, 22]: ≥ 41300 nM
Sequence: PPYCTIAPVGI

Kd [4, 22]: 17500 nM | Kd [5, 22]: 433 nM | Kd [6, 22]: 8540 nM | Kd [7, 22]: 10800 nM | Kd [8, 22]: 10.3 nM
Sequence: QPFPSQQPYL

Sequence: RPLMESELVI
Kd [4, 28]: 666 nM | Kd [5, 28]: 395 nM | Kd [6, 28]: 217 nM | Kd [7, 28]: ≥ 46000 nM | Kd [8, 28]: 32.9 nM

Sequence: RTRPPPCPH
Kd [15]: 935 nM | Kd [16]: ≥ 20000 nM

Sequence: SAYTALFSGV
Kd [11, 25]: 1.16 nM | Kd [3, 25]: 9.19 nM | Kd [13, 25]: 7.14 nM

Sequence: STANVSLAAI
Kd [12]: ≥ 47800 nM | Kd [3, 25]: 2.12 nM

Sequence: STMTLLCLI
Kd ([3]; source organism: Dengue virus 4 Philippines/H241/1956): 3.75 nM

Sequence: TPTIEDDKIV
Kd [4, 24]: 19700 nM | Kd [5, 24]: ≥ 52200 nM | Kd [6, 24]: ≥ 29000 nM | Kd [7, 24]: 3150 nM | Kd [8, 24]: 10100 nM

Sequence: WLGARYLEF
Kd [17]: 158 nM | Kd [18]: 82.7 nM | Kd [19]: 2.26 nM

Sequence: YVNAILYQI
Kd [11, 24]: 1980 nM | Kd [14, 24]: 1430 nM | Kd [3, 24]: 1860 nM | Kd [13, 24]: 9940 nM | Kd [20]: 2050 nM
